{"source": "paper PMC10208892", "about": "(The Journal of Biological Chemistry, 2023)", "key": {"[1]": {"biological_target": "T1, VPS33B, untagged, expressed in yeast (human, UniProt Q9H267 1-617)", "T1 sequence": "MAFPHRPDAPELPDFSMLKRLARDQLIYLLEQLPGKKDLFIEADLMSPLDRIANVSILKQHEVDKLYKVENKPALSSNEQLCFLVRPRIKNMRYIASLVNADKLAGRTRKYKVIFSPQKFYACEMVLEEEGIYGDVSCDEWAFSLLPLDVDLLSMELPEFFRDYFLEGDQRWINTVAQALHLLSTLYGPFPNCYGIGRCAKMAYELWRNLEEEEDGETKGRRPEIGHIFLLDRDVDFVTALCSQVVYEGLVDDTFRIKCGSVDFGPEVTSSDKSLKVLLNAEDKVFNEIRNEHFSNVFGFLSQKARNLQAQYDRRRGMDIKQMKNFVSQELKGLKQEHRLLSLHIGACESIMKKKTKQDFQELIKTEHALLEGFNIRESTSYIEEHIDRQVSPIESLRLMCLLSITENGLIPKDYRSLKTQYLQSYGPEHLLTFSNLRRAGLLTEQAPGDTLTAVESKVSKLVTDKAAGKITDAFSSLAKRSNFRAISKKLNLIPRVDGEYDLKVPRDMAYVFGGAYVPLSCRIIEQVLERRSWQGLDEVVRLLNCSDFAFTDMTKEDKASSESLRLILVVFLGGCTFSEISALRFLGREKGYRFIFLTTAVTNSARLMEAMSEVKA", "assay": "co-IP"}, "[2]": {"biological_target": "T1, VPS33B, untagged, expressed in yeast", "assay": "native gel or EMSA"}, "[3]": {"biological_target": "T2, VPS33B with C-terminal biotinylation signal (human, UniProt Q9H267 1-617, biotin on lysine 41 of the biotinylation signal)", "T2 sequence": "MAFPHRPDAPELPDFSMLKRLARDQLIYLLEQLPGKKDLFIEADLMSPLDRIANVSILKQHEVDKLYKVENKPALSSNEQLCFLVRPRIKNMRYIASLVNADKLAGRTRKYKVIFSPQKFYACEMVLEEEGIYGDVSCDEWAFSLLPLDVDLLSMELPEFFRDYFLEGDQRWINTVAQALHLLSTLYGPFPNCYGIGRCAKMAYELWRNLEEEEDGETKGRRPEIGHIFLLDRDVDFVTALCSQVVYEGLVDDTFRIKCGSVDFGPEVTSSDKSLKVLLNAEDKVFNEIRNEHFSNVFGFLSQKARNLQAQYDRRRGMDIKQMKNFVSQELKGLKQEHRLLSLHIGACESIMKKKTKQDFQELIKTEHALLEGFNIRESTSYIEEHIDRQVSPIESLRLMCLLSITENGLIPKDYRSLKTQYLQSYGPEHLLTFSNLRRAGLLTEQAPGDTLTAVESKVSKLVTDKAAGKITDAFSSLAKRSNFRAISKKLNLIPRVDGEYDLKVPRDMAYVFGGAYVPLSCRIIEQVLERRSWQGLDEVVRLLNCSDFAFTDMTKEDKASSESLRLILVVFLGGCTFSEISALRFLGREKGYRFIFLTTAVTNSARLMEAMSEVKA", "assay": "co-IP"}, "[4]": {"biological_target": "T3, VPS33B S243F (human, UniProt Q9H267 1-617, S243F)", "T3 sequence": "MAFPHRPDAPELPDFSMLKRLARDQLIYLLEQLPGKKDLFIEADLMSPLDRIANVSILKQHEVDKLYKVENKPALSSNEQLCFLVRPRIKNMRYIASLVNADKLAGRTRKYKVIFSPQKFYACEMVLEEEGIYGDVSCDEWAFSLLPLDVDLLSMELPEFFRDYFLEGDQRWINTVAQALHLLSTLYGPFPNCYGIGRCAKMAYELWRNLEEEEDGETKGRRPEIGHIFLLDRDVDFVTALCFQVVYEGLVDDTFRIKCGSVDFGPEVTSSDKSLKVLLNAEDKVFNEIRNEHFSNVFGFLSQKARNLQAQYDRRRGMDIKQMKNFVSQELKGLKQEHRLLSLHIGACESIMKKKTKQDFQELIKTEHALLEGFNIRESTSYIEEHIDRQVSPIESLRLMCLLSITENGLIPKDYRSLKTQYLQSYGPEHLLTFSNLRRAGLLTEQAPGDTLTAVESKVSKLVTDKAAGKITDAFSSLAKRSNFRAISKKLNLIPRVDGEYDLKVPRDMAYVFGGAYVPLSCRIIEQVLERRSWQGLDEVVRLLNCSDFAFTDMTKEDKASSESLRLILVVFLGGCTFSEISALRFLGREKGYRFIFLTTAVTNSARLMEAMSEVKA", "assay": "co-IP"}, "[5]": {"biological_target": "T4, VPS33B H344D (human, UniProt Q9H267 1-617, H344D)", "T4 sequence": "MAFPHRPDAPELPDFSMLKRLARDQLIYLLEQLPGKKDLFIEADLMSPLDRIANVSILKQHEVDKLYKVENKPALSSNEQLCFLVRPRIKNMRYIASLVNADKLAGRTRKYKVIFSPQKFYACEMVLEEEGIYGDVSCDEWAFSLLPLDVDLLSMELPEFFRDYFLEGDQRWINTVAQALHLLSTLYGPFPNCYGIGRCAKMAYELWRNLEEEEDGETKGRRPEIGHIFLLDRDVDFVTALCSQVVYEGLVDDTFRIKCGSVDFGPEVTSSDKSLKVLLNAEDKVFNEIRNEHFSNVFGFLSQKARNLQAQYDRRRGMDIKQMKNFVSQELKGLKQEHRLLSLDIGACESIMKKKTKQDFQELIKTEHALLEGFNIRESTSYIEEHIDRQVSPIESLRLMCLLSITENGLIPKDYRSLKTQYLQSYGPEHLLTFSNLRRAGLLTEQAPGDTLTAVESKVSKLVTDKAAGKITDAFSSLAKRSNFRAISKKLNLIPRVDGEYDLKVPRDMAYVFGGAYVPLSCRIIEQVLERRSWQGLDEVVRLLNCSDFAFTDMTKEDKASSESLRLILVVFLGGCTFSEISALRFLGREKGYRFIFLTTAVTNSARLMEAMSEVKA", "assay": "co-IP"}, "[6]": {"biological_target": "T5, HA-VPS33B, expressed in yeast (human, UniProt Q9H267 1-617)", "T5 sequence": "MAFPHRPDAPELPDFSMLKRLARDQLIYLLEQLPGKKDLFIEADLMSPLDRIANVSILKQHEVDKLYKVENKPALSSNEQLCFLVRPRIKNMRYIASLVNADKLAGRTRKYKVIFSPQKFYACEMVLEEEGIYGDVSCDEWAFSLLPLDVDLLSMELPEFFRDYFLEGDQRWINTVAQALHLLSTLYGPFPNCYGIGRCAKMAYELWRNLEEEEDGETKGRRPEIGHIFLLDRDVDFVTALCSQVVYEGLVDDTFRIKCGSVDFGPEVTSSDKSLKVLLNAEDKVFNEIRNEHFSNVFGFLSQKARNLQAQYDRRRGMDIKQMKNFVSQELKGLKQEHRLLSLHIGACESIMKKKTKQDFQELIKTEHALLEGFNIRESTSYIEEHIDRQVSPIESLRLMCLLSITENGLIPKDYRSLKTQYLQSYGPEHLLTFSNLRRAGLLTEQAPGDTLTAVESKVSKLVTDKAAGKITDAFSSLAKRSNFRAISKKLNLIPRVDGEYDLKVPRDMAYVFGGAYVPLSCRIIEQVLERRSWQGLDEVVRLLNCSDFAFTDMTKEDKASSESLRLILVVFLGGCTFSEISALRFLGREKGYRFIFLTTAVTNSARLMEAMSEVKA", "assay": "co-IP"}}, "data": [{"binder": "VPS16B(143–316)-3xFLAG (domain or fragment) RPKGEYRDYSNDWSPSDTVRRLRKGKVCSLERFRSLQDKLQLLEEAVSMHDGNVITAVLIFLKRTLSKEILFRELEVRQVALRHLIHFLKEIGDQKLLLDLFRFLDRTEELALSHYREHLNIQDPDKRKEFLKTCVGLPFSAEDSAHIQDHYTLLERQIIIEANDRHLESAGQT", "values": [{"measurement": "binding result", "setting": "[1]", "result": "binds"}]}, {"binder": "VPS16B(143–493)-3xFLAG (domain or fragment) RPKGEYRDYSNDWSPSDTVRRLRKGKVCSLERFRSLQDKLQLLEEAVSMHDGNVITAVLIFLKRTLSKEILFRELEVRQVALRHLIHFLKEIGDQKLLLDLFRFLDRTEELALSHYREHLNIQDPDKRKEFLKTCVGLPFSAEDSAHIQDHYTLLERQIIIEANDRHLESAGQTEIFRKHPRKASILNMPLVTTLFYSCFYHYTEAEGTFSSPVNLKKTFKIPDKQYVLTALAARAKLRAWNDVDALFTTKNWLGYTKKRAPIGFHRVVEILHKNNAPVQILQEYVNLVEDVDTKLNLATKFKCHDVVIDTYRDLKDRQQLLAYRSKVDKGSAEEEKIDALLSSSQIRWKN", "values": [{"measurement": "binding result", "setting": "[1]", "result": "binds"}]}, {"binder": "VPS16B-3xFLAG, expressed in yeast (natural protein) MNRTKGDEEEYWNSSKFKAFTFDDEDDELSQLKESKRAVNSLRDFVDDDDDDDLERVSWSGEPVGSISWSIRETAGNSGSTHEGREQLKSRNSFSSYAQLPKPTSTYSLSSFFRGRTRPGSFQSLSDALSDTPAKSYAPELGRPKGEYRDYSNDWSPSDTVRRLRKGKVCSLERFRSLQDKLQLLEEAVSMHDGNVITAVLIFLKRTLSKEILFRELEVRQVALRHLIHFLKEIGDQKLLLDLFRFLDRTEELALSHYREHLNIQDPDKRKEFLKTCVGLPFSAEDSAHIQDHYTLLERQIIIEANDRHLESAGQTEIFRKHPRKASILNMPLVTTLFYSCFYHYTEAEGTFSSPVNLKKTFKIPDKQYVLTALAARAKLRAWNDVDALFTTKNWLGYTKKRAPIGFHRVVEILHKNNAPVQILQEYVNLVEDVDTKLNLATKFKCHDVVIDTYRDLKDRQQLLAYRSKVDKGSAEEEKIDALLSSSQIRWKN", "values": [{"measurement": "binding result", "setting": "[2]", "result": "binds"}, {"measurement": "binding result", "setting": "[3]", "result": "binds"}, {"measurement": "binding result", "setting": "[4]", "result": "binds"}, {"measurement": "binding result", "setting": "[5]", "result": "binds"}]}, {"binder": "HA-VPS16B-3xFLAG, expressed in yeast (natural protein) MNRTKGDEEEYWNSSKFKAFTFDDEDDELSQLKESKRAVNSLRDFVDDDDDDDLERVSWSGEPVGSISWSIRETAGNSGSTHEGREQLKSRNSFSSYAQLPKPTSTYSLSSFFRGRTRPGSFQSLSDALSDTPAKSYAPELGRPKGEYRDYSNDWSPSDTVRRLRKGKVCSLERFRSLQDKLQLLEEAVSMHDGNVITAVLIFLKRTLSKEILFRELEVRQVALRHLIHFLKEIGDQKLLLDLFRFLDRTEELALSHYREHLNIQDPDKRKEFLKTCVGLPFSAEDSAHIQDHYTLLERQIIIEANDRHLESAGQTEIFRKHPRKASILNMPLVTTLFYSCFYHYTEAEGTFSSPVNLKKTFKIPDKQYVLTALAARAKLRAWNDVDALFTTKNWLGYTKKRAPIGFHRVVEILHKNNAPVQILQEYVNLVEDVDTKLNLATKFKCHDVVIDTYRDLKDRQQLLAYRSKVDKGSAEEEKIDALLSSSQIRWKN", "values": [{"measurement": "binding result", "setting": "[6]", "result": "binds"}]}]}
